Laboratory results as given in patent publication US20160228520A1.

Molecular target: PR-3 receptor (proteinase 3) on TNF-primed human peripheral blood neutrophils (human) (UniProt P24158)
Assay: cell-based or functional assay

UniProt P24158, sequence (P24158 28-248): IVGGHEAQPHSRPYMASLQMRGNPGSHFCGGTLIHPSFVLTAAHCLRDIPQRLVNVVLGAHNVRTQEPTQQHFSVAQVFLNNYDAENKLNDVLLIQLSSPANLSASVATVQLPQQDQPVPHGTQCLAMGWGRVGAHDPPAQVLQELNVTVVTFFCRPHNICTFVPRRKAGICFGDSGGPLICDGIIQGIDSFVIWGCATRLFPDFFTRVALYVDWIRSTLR

% Release of calcein from HUVEC, α-PR3 mAbs added, negative control (0.25 mg/mL α1 antichymotrypsin by the text): 21.9% | Mean fluorescence, HUVEC assay, α-PR3 mAbs added, negative control: 4420
Substance: α1-antichymotrypsin (Athens Research & Technology, Cat. No. 16-16-012400) (from UniProt P01011 24-423)
